“Also recorded” adds a separate entry of the source.
Key:
[1] = system: small clot embolic strokes in rabbits; assay: rabbit small clot embolic stroke model (RSCEM), quantal analysis of behavior; assay type: in vivo
Source text: The invention used a rabbit small clot embolic stroke model (RSCEM) that reproduces many facets of human AIS including a well-defined clinical endpoint. The RSCEM utilizes administration of a suspension of small blood clots to induce strokes, and behavioral deficits that can be measured quantitatively. Moreover, the RSCEM is useful to conduct studies testing the effects of single drugs or drug combinations such as a neuroprotective agent (e.g., NXY-059) plus a thrombolytic (Tenecteplase, Alteplase, Desmoteplase and the like). Since it is likely that a drug combination will be used for patient management it is important to determine whether there are any interactions (positive or negative) between the compounds when administered following embolic strokes.
Methods: Male New Zealand white rabbits were anesthetized using halothane (5% induction, 2% maintenance by facemask), the bifurcation of the right carotid artery was exposed and the external carotid was ligated just distal to the bifurcation, where a catheter was inserted into the common carotid and secured with ligatures. The incision was closed around the catheter with the distal ends left accessible outside the neck; the catheter was filled with heparinized saline and plugged with an injection cap. Rabbits were allowed to recover from anesthesia for a minimum of 3 h until they awoke and behaved normally.
For the RSCEM, microclots were prepared from blood drawn from a donor rabbit and allowed to clot at 37° C. All rabbits in the study received injections of the same sized microclots. For embolization, clot particles were rapidly injected through the carotid catheter and both the syringe and catheter were flushed with 5 ml of normal saline. […]
Quantal Dose-Response Analysis: For the RSCEM, a quantal dose-response data analysis technique was used. […] The P50 values are then calculated. […] The data were analyzed using the t-test, which included the Bonferroni correction where appropriate. […]

[2] = system: small clot embolic strokes in rabbits; settings: previous studies; cited from earlier work

B1: Tenecteplase: thrombolytic agent supplied by Genentech as a lyophilized cake, the formulation used clinically (protein, UniProt P00750 36-562, looked up, variant T103N N117Q K296A H297A R298A R299A)
Tissue-type plasminogen …: SYQVICRDEKTQMIYQQHQSWLRPVLRSNRVEYCWCNSGRAQCHSVPVKSCSEPRCFNGGTCQQALYFSDFVCQCPEGFAGKCCEIDTRATCYEDQGISYRGNWSTAESGAECTNWQSSALAQKPYSGRRPDAIRLGLGNHNYCRNPDRDSKPWCYVFKAGKYSSEFCSTPACSEGNSDCYFGNGSAYRGTHSLTESGASCLPWNSMILIGKVYTAQNPSAQALGLGKHNYCRNPDGDAKPWCHVLKNRRLTWEYCDVPSCSTCGLRQYSQPQFRIKGGLFADIASHPWQAAIFAAAAASPGERFLCGGILISSCWILSAAHCFQERFPPHHLTVILGRTYRVVPGEEEQKFEVEKYIVHKEFDDDTYDNDIALLQLKSDSSRCAQESSVVRTVCLPPADLQLPDWTECELSGYGKHEALSPFYSERLKEAHVRLYPSSRCTSQHLLNRTVTDNMLCAGDTRSGGPQANLHDACQGDSGGPLVCLNDGRMTLVGIISWGLGCGQKDVPGVYTKVTNYLDWIRDNMRP
Q: With B1 as the molecule, how does the P50 ([1]; Tenecteplase 0.9 mg/kg IV bolus, 1 hour following embolization) read?
A: The P50 was 2.76 ± 0.37 mg.

Q: What about the “increase of P50 over control” value ([1]; Tenecteplase 0.9 mg/kg, 1 hour following embolization) of the same molecule?
A: Its value is 130%.

Q: What about the “P50 compared to control” value ([1]; Tenecteplase 0.9 mg/kg, 6 hours following embolization) of the same molecule?
A: Its value is “did not increase the P50 compared to control; also recorded: neither Tenecteplase, nor NXY-059, significantly (p>0.05) affect P50 values”.

Q: What about the therapeutic window [2] of the same molecule?
A: The therapeutic window was 3 h.

— patent publication US20070166299A1, “TREATMENT FOR EMBOLIC STROKE” (priority 2005, published 2007)
